Results from article doi:10.1101/2024.06.17.598829 (bioRxiv, 2024).
Several values for one entry are separate records, joined by “and”; a condition that tells them apart may be missing. Equal values may be shown once.

Target: the molecule itself
Assay: SEC

B1: MBP:NPH3-C104 (domain or fragment, Arabidopsis, UniProt Q9FMF5 643-746, looked up)
chain: PQSFQEGWAAAKKDINTLKFELETVKTKYVELQNEMEVMQRQFEKTGKVKNTPSSSAWTSGWKKLSKLTKMSGQESHDISSGGEQAGVDHPPPRKPRRWRNSIS
stoichiometry N: 3 and 6
